{
  "source": "paper PMC6075789",
  "about": "“Comparative proteomics of the two T. brucei PABPs suggests that PABP2 controls bulk mRNA” (PLoS Neglected Tropical Diseases, 2018)",
  "molecules": {"B1": {"name": "PABP1-4Ty1 (natural protein, T. brucei, UniProt Q38E63 1-566, looked up)", "chain": "MTIAAQGVPSGPSATKPLQVASLYVGDLDPAINEPQLVDIFKPYGTILNVRVCRDIITQRSLGYGYVNYDDVNSASKAMEELNFKRVGEKCIRIMWQQRDPALRYSGSGNIFVKNLKEEVDSRELSLIFKKFGEILSCKVMDDESGKSRGYGFVHFKDDDAAKAAIEKMNGDKEHADADKAALYVANFIRRNARLAALVANFTNVYIKQLLPTVDKDVIEKFFSKFGGITSAAICKDKNGRAFAFCNFEKHDDAVKAIEASHDQEVEGVTQPGEKLYVQRAQPRSERLIALRQKYMQCQSLGNNLYVRNFDAEFTEKDLNELFKEYGVIRSCRVMTDANGISRGFGFVSFENADQANAALREMNGRMLNGKPLVVNIAQRRDQRLTMLKLQLQQRLQMMMHHMHPPPFGMPGHPLQRRNARSGGRGNRPHPRQQQPQPQPEPQPPLATTVPPAAAHSVMFTAPSMGFSAVPRTPQASPAIAPDTPPLPPISAEDLQQMSVDEQRAALGDRLYIKVHELAPDHAPKITGMFLEMNPKEALALLSNPKLMHEKVTEALCVLKVHASSA", "notes": "also called PABP-Ty1; source: T. brucei procyclic Lister 427, expressed from the endogenous locus, in lysate of cryomilled cells"}},
  "key": {"[1]": {"target": "eIF4E4 eYFP fusion protein (T. brucei)", "experiment": "co-IP; eYFP fusion of eIF4E4 or G1-IP2 precipitated from cryomilled powder in low salt buffer with anti-GFP nanobody LaG16-LaG2 on magnetic beads; co-precipitated PABP-4Ty1 detected by western blot with anti-Ty1 (BB2); enrichment against beads without antibody, two replicates"}, "[2]": {"target": "T1, G1-IP2 eYFP fusion protein (T. brucei, UniProt Q387L6 1-435)", "T1 construct": "The methods say N-terminal eYFP for all proteins but RBP23; the results print the label G1-IP2-eYFP; source: T. brucei procyclic Lister 427, expressed from the endogenous locus, in lysate of cryomilled cells; not shown: eYFP, N-terminal, kept", "T1 sequence (looked up)": "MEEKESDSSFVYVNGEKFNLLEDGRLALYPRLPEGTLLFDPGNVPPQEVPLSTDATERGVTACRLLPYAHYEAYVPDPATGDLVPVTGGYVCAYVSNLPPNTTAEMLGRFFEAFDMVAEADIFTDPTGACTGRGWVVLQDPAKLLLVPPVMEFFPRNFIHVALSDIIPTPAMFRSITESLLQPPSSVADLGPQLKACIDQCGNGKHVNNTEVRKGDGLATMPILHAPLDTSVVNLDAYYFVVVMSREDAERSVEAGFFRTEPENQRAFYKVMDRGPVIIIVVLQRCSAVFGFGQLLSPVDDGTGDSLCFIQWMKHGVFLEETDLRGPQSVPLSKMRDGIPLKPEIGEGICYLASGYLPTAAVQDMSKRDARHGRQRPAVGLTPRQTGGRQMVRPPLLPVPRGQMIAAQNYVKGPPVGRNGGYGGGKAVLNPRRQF", "experiment": "co-IP; eYFP fusion of eIF4E4 or G1-IP2 precipitated from cryomilled powder in low salt buffer with anti-GFP nanobody LaG16-LaG2 on magnetic beads; co-precipitated PABP-4Ty1 detected by western blot with anti-Ty1 (BB2); enrichment against beads without antibody, two replicates"}},
  "note": "Like-named read-outs stand apart in the source and are kept apart here.",
  "data": [
    {"molecule": "PABP2-4Ty1 (natural protein)", "values": [
      {"measurement": "enrichment ratio against control beads without antibody", "setting": "[1]", "value": 3, "unit": "fold"},
      {"measurement": "enrichment ratio against control beads without antibody", "setting": "[2]", "value": 19, "unit": "fold"}
    ]},
    {"molecule": "B1", "values": [
      {"measurement": "enrichment ratio against control beads without antibody", "setting": "[1]", "value": 64, "unit": "fold"},
      {"measurement": "enrichment ratio against control beads without antibody", "setting": "[2]; partners not purified", "value": 4, "unit": "fold"}
    ]}
  ]
}
